This note sets out measurements from publication PMC5383521 (Journal of molecular recognition : JMR, 2016).

In test [1] the target is murine monoclonal antibody LA-2, wild type (mouse). Put plainly: SPR. In general terms: Surface plasmon resonance follows binding to a sensor surface in real time, without labels.
For test [2], the target named is Outer surface protein A (OspA) from Borrelia burgdorferi B31, wild type (Borrelia burgdorferi B31, UniProt P0CL66). Kind of test: SPR.

Substitutions are numbered along the chain they refer to. Names may count otherwise.

“OspA (B. burgdorferi B31) A215K (from UniProt P0CL66 17-273) (natural protein)”: the fold increase of affinity against wild type OspA in test [1] came out at 7.5 fold.

B1: murine monoclonal antibody LA-2, wild type (antibody, V domains shown)
VH: QIQLVQSGPELKKPGETVKISCKASGYTFTDYSMYWVKQAPGKGLKRMGWINTETGEPTYADDFKGRFALSLDTSASTAYLHISNLKNEDTATYFCARGLDSWGQGTSVTVSS
VL: DIQMTQSPSSLSATLGGKVTITCKASQDINKYIAWYQHKPGKGPRLLIHYTSTLQPGNPSRFSGSGSGRDYSFSISNLEAEDIAIYYCLQYDNLQRTFGGGTKVEIK
As for B1, in test [2], the binding result is listed as “binds”.

B2: LA-2 H49A-Light (antibody, V domains shown)
VH: B1 VH
VL: B1 VL with H49A
Regarding B2, the binding result in test [2] is on record as “no binding”.
